This passage reports cytotoxicity (cell killing, Cell Titer-Glo viability) on SKBR3 cells, EC50 results from US20160257946A1.

The experiment deals with Her2 on the Her2-positive breast cancer cell line SKBR3 (UniProt P04626). As to the kind of experiment: cell-based or functional assay.

“trastuzumab-MMAF conjugates (trastuzumab-HC136-MMAF) (antibody)”: the cytotoxicity (cell killing, Cell Titer-Glo viability) on SKBR3 cells, EC50 lay in the range of 0.043 to 0.071 nM.
